Measured values published in PMC3918160, “Biochemical studies of the multicopper oxidase (small laccase) from Streptomyces coelicolor using bioactive phytochemicals and site-directed mutagenesis” (Microbial Biotechnology, 2013).
Substitutions are numbered along the chain they refer to. In names and notes the source's numbering stands.

B1: small laccase (SLAC), SCO6712 (Streptomyces coelicolor A3(2)) (protein)
chain: AKGITARTAPAGGEVRHLKMYAEKLADGQMGYGFEKGKASVPGPLIEVNEGDTLHIEFTNTMDVRASLHVHGLDYEISSDGTAMNKSDVEPGGTRTYTWRTHKPGRRDDGTWRPGSAGYWHYHDHVVGTEHGTGGIRNGLYGPVIVRRKGDVLPDATHTIVFNDMTINNRKPHTGPDFEATVGDRVEIVMITHGEYYHTFHMHGHRWADNRTGILTGPDDPSRVIDNKITGPADSFGFQIIAGEGVGAGAWMYHCHVQSHSDMGMVGLFLVKKPDGTIPGYEPHEHGGATAKSGESGEPTGGAAAHEHEH
B2: small laccase (SLAC), SCO6712 (Streptomyces coelicolor A3(2); S292A) (protein)
chain: B1 chain with S259A

How the values were obtained:
[1] = substrate: O=c1c(O)c(-c2cc(O)c(O)c(O)c2)oc2cc(O)cc(O)c12; experiment: purified protein; conditions: 60°C, optimal pH for the substrate, 5% (v/v) DMSO
[2] = substrate: O=c1c(O)c(-c2ccc(O)cc2O)oc2cc(O)cc(O)c12; experiment: initial rates, absorbance, Michaelis-Menten fit; type: biochemical, Streptomyces coelicolor; conditions: 60°C, optimal pH for the substrate
[3] = substrate: O=c1c(O)c(-c2ccc(O)c(O)c2)oc2cc(O)cc(O)c12; experiment: initial rates, absorbance, Michaelis-Menten fit; type: biochemical, Streptomyces coelicolor; conditions: 60°C, optimal pH for the substrate, 5% (v/v) DMSO
[4] = substrate: CCn1c(=NN=c2sc3cc(S(=O)(=O)O)ccc3n2CC)sc2cc(S(=O)(=O)O)ccc21; experiment: initial rates, absorbance, Michaelis-Menten fit; type: biochemical, Streptomyces coelicolor; conditions: 60°C, optimal pH for the substrate
[5] = substrate: COc1cccc(OC)c1O; experiment: initial rates, absorbance, Michaelis-Menten fit; type: biochemical, Streptomyces coelicolor; conditions: 60°C, optimal pH for the substrate

Protein	Km [1]	kcat [1]	Km ([2]; 5% (v/v) DMSO)	Km [3]	Km ([4]; universal buffer)	Km ([5]; universal buffer)	Km ([2]; DMSO)	kcat ([2]; DMSO)	Km [4]	kcat [4]	Km [5]	kcat [5]
B1	900 ± 300 µM	8.1 ± 0.8 s⁻¹	1500 ± 200 µM	1200 ± 400 µM	800 ± 100 µM	1100 ± 200 µM	–	–	–	–	–	–
B2	–	–	–	–	–	–	1600 ± 400 µM	4.0 ± 0.4 s⁻¹	2400 ± 200 µM	11.1 ± 0.3 s⁻¹	120 ± 20 µM	0.93 ± 0.02 s⁻¹
